Assay in all cases: ELISA
Assay [1] deals with recombinant purified β2 integrin subunit (UniProt P05107 23-769).
In assay [2] the target is recombinant purified integrin αMβ2 (UniProt P11215 17-1152; P05107 23-769).
Assay [3] has as its target recombinant purified αM integrin subunit (UniProt P11215 17-1152).

Ends that are not written are not given here. Bounds are passed on as bounds.

As for KIIPFNRLTIG (also: biotin label, position not given here) [peptide P2-C, Fgγ(385)KIIPFNRLTIG(395)], the figures for the Kd in assay [1], in assay [2] and in assay [3] were 50 nM, 12 nM and 100 nM, respectively.
Take GWTVFQKRLDGSV (also: biotin label, position not given here) [peptide P1, Fgγ(190)GWTVFQKRLDGSV(202)]: the Kd (in general, the equilibrium constant for the complex coming apart) in assay [1] is more than 100000 nM.

The record behind these values is paper PMC2978023 (Journal of immunology (Baltimore, Md. : 1950), 2008).
